The source of these data is the Human Domainome abundance scans (Beltran et al. 2025).

B1: Far upstream element-binding protein 2, residues 142 to 214; numbered along this chain, Q92945 (parent)
chain: RTSMTEEYRVPDGMVGLIIGRGGEQINKIQQDSGCKVQISPDSGGLPERSVSLTGAPESVQKAKMMLDDIVSR

± gives the uncertainty stated by the source.

The variants in this series derive from B1. The experiment in a line: abundance fitness (aPCA) (normalised: wild type 0, dead -1); higher = more abundant; growth selection in yeast, the domain comes from the species named. The settings on record: Homo sapiens.
As for RTSMTEEYRVPDGMVGLIIGRGGEQIAKIQQDSGCKVQISPDSGGLPERSVSLTGAPESVQKAKMMLDDIVSR [N27A], the abundance fitness was -0.095 ± 0.048.
For the variant RTSMTEEYRVPDGMVGLIIGRGGEQIFKIQQDSGCKVQISPDSGGLPERSVSLTGAPESVQKAKMMLDDIVSR [N27F], the abundance fitness was -0.081 ± 0.097.
For RTSMTEEYRVPDGMVGLIIGRGGEQIGKIQQDSGCKVQISPDSGGLPERSVSLTGAPESVQKAKMMLDDIVSR [N27G], the abundance fitness was -0.137 ± 0.044.
As to RTSMTEEYRVPDGMVGLIIGRGGEQIWKIQQDSGCKVQISPDSGGLPERSVSLTGAPESVQKAKMMLDDIVSR [N27W], the abundance fitness is -0.209 ± 0.045.
Take RTSMTEEYRVPDGMVGLIIGRGGEQIPKIQQDSGCKVQISPDSGGLPERSVSLTGAPESVQKAKMMLDDIVSR [N27P]: the abundance fitness was -0.476 ± 0.051.
Under RTSMTEEYRVPDGMVGLIIGRGGEQINKSQQDSGCKVQISPDSGGLPERSVSLTGAPESVQKAKMMLDDIVSR [I29S] stands -0.819 ± 0.056.
The result for RTSMTEEYRVPDGMVGLIIGRGGEQINKHQQDSGCKVQISPDSGGLPERSVSLTGAPESVQKAKMMLDDIVSR [I29H] reads -0.984 ± 0.11; that for RTSMTEEYRVPDGMVGLIIGRGGEQINKAQQDSGCKVQISPDSGGLPERSVSLTGAPESVQKAKMMLDDIVSR [I29A], -0.811 ± 0.053.
On to RTSMTEEYRVPDGMVGLIIGRGGEQINKPQQDSGCKVQISPDSGGLPERSVSLTGAPESVQKAKMMLDDIVSR [I29P], for which the abundance fitness was -0.849 ± 0.071.
RTSMTEEYRVPDGMVGLIIGRGGEQINKEQQDSGCKVQISPDSGGLPERSVSLTGAPESVQKAKMMLDDIVSR [I29E]: the abundance fitness was -0.736 ± 0.064.
The result for RTSMTEEYRVPDGMVGLIIGRGGEQINKRQQDSGCKVQISPDSGGLPERSVSLTGAPESVQKAKMMLDDIVSR [I29R] reads -0.995 ± 0.046; that for RTSMTEEYRVPDGMVGLIIGRGGEQINKVQQDSGCKVQISPDSGGLPERSVSLTGAPESVQKAKMMLDDIVSR [I29V], -0.185 ± 0.041; that for RTSMTEEYRVPDGMVGLIIGRGGEQINKQQQDSGCKVQISPDSGGLPERSVSLTGAPESVQKAKMMLDDIVSR [I29Q], -0.841 ± 0.071.
The result for RTSMTEEYRVPDGMVGLIIGRGGEQINKTQQDSGCKVQISPDSGGLPERSVSLTGAPESVQKAKMMLDDIVSR [I29T] reads -0.745 ± 0.065.
In the case of RTSMTEEYRVPDGMVGLIIGRGGEQINKGQQDSGCKVQISPDSGGLPERSVSLTGAPESVQKAKMMLDDIVSR [I29G], the abundance fitness is -0.856 ± 0.044.
The result for RTSMTEEYRVPDGMVGLIIGRGGEQINKWQQDSGCKVQISPDSGGLPERSVSLTGAPESVQKAKMMLDDIVSR [I29W] reads -0.981 ± 0.063; that for RTSMTEEYRVPDGMVGLIIGRGGEQINKKQQDSGCKVQISPDSGGLPERSVSLTGAPESVQKAKMMLDDIVSR [I29K], -0.787 ± 0.078; that for RTSMTEEYRVPDGMVGLIIGRGGEQINKNQQDSGCKVQISPDSGGLPERSVSLTGAPESVQKAKMMLDDIVSR [I29N], -0.869 ± 0.14.
Under RTSMTEEYRVPDGMVGLIIGRGGEQINKFQQDSGCKVQISPDSGGLPERSVSLTGAPESVQKAKMMLDDIVSR [I29F] stands -0.682 ± 0.11; under RTSMTEEYRVPDGMVGLIIGRGGEQINKMQQDSGCKVQISPDSGGLPERSVSLTGAPESVQKAKMMLDDIVSR [I29M], -0.524 ± 0.061.
The result for RTSMTEEYRVPDGMVGLIIGRGGEQINKYQQDSGCKVQISPDSGGLPERSVSLTGAPESVQKAKMMLDDIVSR [I29Y] reads -0.971 ± 0.11.
For RTSMTEEYRVPDGMVGLIIGRGGEQINGIQQDSGCKVQISPDSGGLPERSVSLTGAPESVQKAKMMLDDIVSR [K28G], the abundance fitness is -0.507 ± 0.039.
As to RTSMTEEYRVPDGMVGLIIGRGGEQINRIQQDSGCKVQISPDSGGLPERSVSLTGAPESVQKAKMMLDDIVSR [K28R], the abundance fitness amounted to 0.002 ± 0.036.
The result for RTSMTEEYRVPDGMVGLIIGRGGEQINEIQQDSGCKVQISPDSGGLPERSVSLTGAPESVQKAKMMLDDIVSR [K28E] reads -0.243 ± 0.065; that for RTSMTEEYRVPDGMVGLIIGRGGEQINWIQQDSGCKVQISPDSGGLPERSVSLTGAPESVQKAKMMLDDIVSR [K28W], -0.51 ± 0.051; that for RTSMTEEYRVPDGMVGLIIGRGGEQINFIQQDSGCKVQISPDSGGLPERSVSLTGAPESVQKAKMMLDDIVSR [K28F], -0.4 ± 0.11.
Under RTSMTEEYRVPDGMVGLIIGRGGEQINNIQQDSGCKVQISPDSGGLPERSVSLTGAPESVQKAKMMLDDIVSR [K28N] stands -0.256 ± 0.16.
The result for RTSMTEEYRVPDGMVGLIIGRGGEQINIIQQDSGCKVQISPDSGGLPERSVSLTGAPESVQKAKMMLDDIVSR [K28I] reads -0.269 ± 0.11; that for RTSMTEEYRVPDGMVGLIIGRGGEQINDIQQDSGCKVQISPDSGGLPERSVSLTGAPESVQKAKMMLDDIVSR [K28D], -0.431 ± 0.083.
As to RTSMTEEYRVPDGMVGLIIGRGGEQINCIQQDSGCKVQISPDSGGLPERSVSLTGAPESVQKAKMMLDDIVSR [K28C], the abundance fitness is -0.597 ± 0.082.
Under RTSMTEEYRVPDGMVGLIIGRGGEQINTIQQDSGCKVQISPDSGGLPERSVSLTGAPESVQKAKMMLDDIVSR [K28T] stands -0.209 ± 0.064.
The result for RTSMTEEYRVPDGMVGLIIGRGGEQINVIQQDSGCKVQISPDSGGLPERSVSLTGAPESVQKAKMMLDDIVSR [K28V] reads -0.419 ± 0.046; that for RTSMTEEYRVPDGMVGLIIGRGGEQINYIQQDSGCKVQISPDSGGLPERSVSLTGAPESVQKAKMMLDDIVSR [K28Y], -0.337 ± 0.14.
RTSMTEEYRVPDGMVGLIIGRGGEQINAIQQDSGCKVQISPDSGGLPERSVSLTGAPESVQKAKMMLDDIVSR [K28A]: the abundance fitness is -0.144 ± 0.048.
For RTSMTEEYRVPDGMVGLIIGRGGEQINHIQQDSGCKVQISPDSGGLPERSVSLTGAPESVQKAKMMLDDIVSR [K28H], the abundance fitness is -0.162 ± 0.077.
For the variant RTSMTEEYRVPDGMVGLIIGRGGEQINMIQQDSGCKVQISPDSGGLPERSVSLTGAPESVQKAKMMLDDIVSR [K28M], the abundance fitness is -0.085 ± 0.062.
As for RTSMTEEYRVPDGMVGLIIGRGGEQINLIQQDSGCKVQISPDSGGLPERSVSLTGAPESVQKAKMMLDDIVSR [K28L], the abundance fitness was -0.239 ± 0.044.
The result for RTSMTEEYRVPDGMVGLIIGRGGEQINPIQQDSGCKVQISPDSGGLPERSVSLTGAPESVQKAKMMLDDIVSR [K28P] reads -0.751 ± 0.069.
